Test results published in article PMC11510446, “Establishing a Relationship between In Vitro Potency in Cell-Based Assays and Clinical Efficacious Concentrations for Approved GLP-1 Receptor Agonists” (Pharmaceutics, 2024).
Like-named read-outs stand apart in the source and are kept apart here.

How the values were obtained:
[1] = human, cited from earlier work
Excerpt: Pharmacokinetic parameters representing rate of absorption (Ka), central clearance (CL), central volume (Vc), peripheral volume (Vp), distribution clearance (CLd), bioavailability (F) and lag- time (Tlag).

[2] = target: human GLP-1R (Homo sapiens, UniProt P43220); experiment: cAMP accumulation assay (HTRF) in stable CHO cell line expressing human GLP-1R; type: cell-based
Protocol: Cell-based cyclic adenosine monophosphate (cAMP) accumulation assays were used to measure in vitro potency for GLP-1RAs in a stable Chinese hamster ovary (CHO) cell line expressing human GLP-1R (generated at AstraZeneca) or EndoC-βH1 cells endogenously expressing the GLP-1R (Endocells, Paris, France) as previously described. In brief, test GLP-1RA serial dilutions were prepared using an ECHO® acoustic liquid handler (Beckman, High Wycombe, UK) to obtain an 11-point dose–response curve in assay buffer (Hanks’ balanced salt solution (HBSS)) supplemented with 25 mM of HEPES and 0.5 mM of 3-isobutyl-1-methylxanthine (IBMX). […] The EndoC-βH1 cell assay was performed in an assay buffer containing 0.1% BSA.
Following compound and cell incubation for 30 min, the level of cAMP accumulation was determined using a cAMP dynamic 2 HTRF (homogeneous time-resolved fluorescence) kit (Cisbio, Codolet, France), following the two-step protocol according to the manufacturer’s guidelines. Treated cells were incubated with anti-cAMP cryptate and cAMP-d2 in lysis buffer at room temperature for 1 h and read on an Envision plate reader (PerkinElmer, Waltham, MA, USA).

Sequence of human GLP-1R (P43220 24-463): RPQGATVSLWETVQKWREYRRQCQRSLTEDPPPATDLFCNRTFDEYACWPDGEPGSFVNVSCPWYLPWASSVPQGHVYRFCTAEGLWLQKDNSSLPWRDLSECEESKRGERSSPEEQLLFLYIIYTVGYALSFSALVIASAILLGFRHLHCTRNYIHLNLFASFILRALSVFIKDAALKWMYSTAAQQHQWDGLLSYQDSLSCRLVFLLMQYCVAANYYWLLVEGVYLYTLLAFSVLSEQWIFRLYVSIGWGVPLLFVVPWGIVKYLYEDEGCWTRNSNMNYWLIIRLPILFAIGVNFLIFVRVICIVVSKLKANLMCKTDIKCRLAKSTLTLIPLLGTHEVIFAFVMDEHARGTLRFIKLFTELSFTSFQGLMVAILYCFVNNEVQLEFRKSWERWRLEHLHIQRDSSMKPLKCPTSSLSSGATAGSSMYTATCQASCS

## CCCCCCCCCCCCCCCC(=O)N[C@@H](CCC(=O)NCCCC[C@H](NC(=O)[C@H](C)NC(=O)[C@H](C)NC(=O)[C@H](CCC(N)=O)NC(=O)CNC(=O)[C@H](CCC(=O)O)NC(=O)[C@H](CC(C)C)NC(=O)[C@H](Cc1ccc(O)cc1)NC(=O)[C@H](CO)NC(=O)[C@H](CO)NC(=O)[C@@H](NC(=O)[C@H](CC(=O)O)NC(=O)[C@H](CO)NC(=O)[C@@H](NC(=O)[C@H](Cc1ccccc1)NC(=O)[C@@H](NC(=O)CNC(=O)[C@H](CCC(=O)O)NC(=O)[C@H](C)NC(=O)[C@@H](N)Cc1cnc[nH]1)[C@@H](C)O)[C@@H](C)O)C(C)C)C(=O)N[C@@H](CCC(=O)O)C(=O)N[C@@H](Cc1ccccc1)C(=O)N[C@H](C(=O)N[C@@H](C)C(=O)N[C@@H](Cc1c[nH]c2ccccc12)C(=O)N[C@@H](CC(C)C)C(=O)N[C@H](C(=O)N[C@@H](CCCNC(=N)N)C(=O)NCC(=O)N[C@@H](CCCNC(=N)N)C(=O)NCC(=O)O)C(C)C)[C@@H](C)CC)C(=O)O [Liraglutide]
[1]; T2D, ref [7] (supplement references)
  lag-time Tlag: 6 h
[1]; fraction, dulaglutide value at 1.5 mg, ref [4] dulaglutide, [5] semaglutide oral, [6] semaglutide sc, [7] liraglutide (supplement references)
  bioavailability F: 0.51
[1]; population PK, T2D (semaglutide oral: T2D, obesity), ref [4] dulaglutide, [5] semaglutide oral, [6] semaglutide sc, [7] liraglutide (supplement references)
  central clearance CL: 0.91 L/h

## Dulaglutide: a DPP-IV-protected GLP-1 analog covalently linked to a human IgG4-Fc heavy chain by a peptide linker
[2]; read-out: EC50 (pM) 0.1%, NSB = BSA, shift assay Table S1A, 0.1% BSA
  EC50: 9.07 pM
[2]; read-out: EC50 (pM) 0.1%, NSB = OA, shift assay Table S1B, 0.1% ovalbumin
  EC50: 46.4 pM
[2]; read-out: EC50 (pM) 0.3%, NSB = BSA, shift assay Table S1A, 0.3% BSA
  EC50: 10.8 pM
[2]; read-out: EC50 (pM) 0.3%, NSB = OA, shift assay Table S1B, 0.3% ovalbumin
  EC50: 34.1 pM
[2]; read-out: EC50 (pM) 1%, NSB = BSA, shift assay Table S1A, 1% BSA
  EC50: 12.1 pM
[2]; read-out: EC50 (pM) 1%, NSB = OA, shift assay Table S1B, 1% ovalbumin
  EC50: 30.7 pM
[2]; read-out: EC50 (pM) 3%, NSB = BSA, shift assay Table S1A, 3% BSA
  EC50: 9.7 pM
[2]; read-out: EC50 (pM) 3%, NSB = OA, shift assay Table S1B, 3% ovalbumin
  EC50: 26 pM
[1]; in vivo
  bioavailability F: 0.47
  central clearance CL: 0.0593 L/h
  central volume Vc: 2.25 L
  distribution clearance CLd: 0.0201 L/h
  peripheral volume Vp: 3.75 L
  rate of absorption Ka: 0.00769 h⁻¹
